# According to PMC11088876, “Activin E is a transforming growth factor β ligand that signals specifically through activin receptor-like kinase 7” (Biochemical Journal, 2024):
# B1: Flag-tagged mature ActE from Construct II (ligand, human, UniProt P58166 237-350, looked up)
# chain: TPTCEPATPLCCRRDHYVDFQELGWRDWILQPEGYQLNYCSGQCPPHLAGSPGIAASFHSAVFSLLKANNPWPASTSCCVPTARRPLSLLYLDHNGNVVKTDVPDMVVEACGCS
# notes: A233R lies in the furin site before the cut and is surmised not to stand in the mature chain; Furin processing was incomplete: the medium also holds singly and doubly unprocessed species and a smaller clipping product; also called Flag-ActE; ActE Construct II; source: ExpiCHO-S, transfected, conditioned medium (concentrated 20x); not shown: Flag, N-terminal, kept
# Target: the molecule itself
# Assay: SDS-PAGE under non-reducing and reducing conditions with anti-Flag western blot; conditioned medium of transfected ExpiCHO-S cells; 15% SDS gels; covalent (disulfide-linked) dimer against monomer
protein,measurement,value
B1,stoichiometry N,2
